The target in assay [1] is T1, human LTBR protein (human, UniProt P36941 31-227, limits assumed).
T1 construct: Protein used for the KD, binning and crystallization; In the crystal the entire extracellular domain was ordered; also called lymphotoxin beta receptor; TNFR3
Description: not stated at this place (SPR by the heading before paragraph 293, where the value is repeated); human LTBR.

The target of assay [2] is T2, human LTBR on cells (endogenous on HUVEC, HT29, primary human fibroblasts and moDC; LTBR-expressing HEK293) (human, UniProt P36941 31-435).
T2 construct: also called endogenous human LTBR
T2 sequence (P36941 31-435 limits assumed): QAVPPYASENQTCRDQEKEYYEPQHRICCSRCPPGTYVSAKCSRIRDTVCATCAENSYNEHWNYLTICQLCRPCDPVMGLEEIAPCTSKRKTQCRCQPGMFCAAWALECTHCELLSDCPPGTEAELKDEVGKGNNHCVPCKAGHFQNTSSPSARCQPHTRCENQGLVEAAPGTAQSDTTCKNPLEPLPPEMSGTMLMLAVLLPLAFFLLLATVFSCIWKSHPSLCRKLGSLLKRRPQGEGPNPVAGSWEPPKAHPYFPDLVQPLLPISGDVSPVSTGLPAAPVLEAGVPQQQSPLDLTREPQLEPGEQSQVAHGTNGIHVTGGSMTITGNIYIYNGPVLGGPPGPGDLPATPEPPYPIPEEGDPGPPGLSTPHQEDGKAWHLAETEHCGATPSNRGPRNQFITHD
Description: flow cytometry with AF647-labeled antibody on HT29 cells (endogenous human LTBR), 1.5 hours on ice. As to the method:
(§1) Endogenous human LTBR binding: 1E01 binding to endogenous LTBR on human endothelial cells (human umbilical vein endothelial cells (HUVEC)) and tumor cells (HT29 human colorectal carcinoma cells) was assessed in a flow cytometry-based assay using AF647-labeled antibody and Quantbrite™ beads. Cells were incubated with antibody for 1.5 hours on ice prior to endpoint analysis. Results confirmed the binding of 1E01 to endogenous human LTBR.

In assay [3] the target is T2, human LTBR on cells (endogenous on …). The experiment in a line: cell-based or functional assay.
Assay [4] deals with chimeric LTBR with a human extracellular domain and mouse transmembrane and intracellular domains, on CT26 … (human; mouse). Description: cell-based or functional assay.
Sequence of chimeric LTBR with a human extracellular domain and mouse transmembrane and intracellular domains, on CT26 … (human; mouse) (chain, as listed by the source mutant limits assumed): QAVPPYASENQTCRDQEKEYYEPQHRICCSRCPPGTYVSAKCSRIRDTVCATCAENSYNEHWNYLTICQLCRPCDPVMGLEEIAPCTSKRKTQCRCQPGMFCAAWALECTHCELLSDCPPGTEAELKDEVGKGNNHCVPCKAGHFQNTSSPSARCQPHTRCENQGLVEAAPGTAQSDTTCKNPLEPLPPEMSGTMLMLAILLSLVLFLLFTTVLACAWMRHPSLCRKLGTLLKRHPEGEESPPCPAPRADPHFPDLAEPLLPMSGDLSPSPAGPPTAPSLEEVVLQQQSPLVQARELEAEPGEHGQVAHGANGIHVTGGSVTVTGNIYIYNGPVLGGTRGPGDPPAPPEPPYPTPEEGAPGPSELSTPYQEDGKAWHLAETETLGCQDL
Assay [5] deals with cynomolgus monkey LTBR on primary cynomolgus monkey fibroblasts (cynomolgus monkey, UniProt P36941 1-435 (human entry)). Description: cell-based or functional assay.
Sequence of cynomolgus monkey LTBR on primary cynomolgus monkey fibroblasts (P36941 other isoform, or with tags, fused parts or gaps limits assumed): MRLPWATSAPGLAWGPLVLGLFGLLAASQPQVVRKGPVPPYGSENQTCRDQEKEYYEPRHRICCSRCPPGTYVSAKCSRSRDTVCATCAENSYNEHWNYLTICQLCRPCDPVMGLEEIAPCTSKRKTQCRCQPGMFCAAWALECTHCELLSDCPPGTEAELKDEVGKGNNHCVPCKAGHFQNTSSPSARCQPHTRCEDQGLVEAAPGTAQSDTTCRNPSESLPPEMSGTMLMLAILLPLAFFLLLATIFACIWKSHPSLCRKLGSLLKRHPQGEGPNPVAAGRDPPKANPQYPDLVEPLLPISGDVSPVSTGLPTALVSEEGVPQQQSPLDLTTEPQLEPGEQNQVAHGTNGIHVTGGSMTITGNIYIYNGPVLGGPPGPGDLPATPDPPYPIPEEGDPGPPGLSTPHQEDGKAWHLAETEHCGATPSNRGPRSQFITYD
In assay [6] the target is T2, human LTBR on cells (endogenous on …). Description: flow cytometry with AF647-labeled antibody on HUVEC (endogenous human LTBR), 1.5 hours on ice. As to the method:
as §1

T1 sequence (P36941 31-227 limits assumed): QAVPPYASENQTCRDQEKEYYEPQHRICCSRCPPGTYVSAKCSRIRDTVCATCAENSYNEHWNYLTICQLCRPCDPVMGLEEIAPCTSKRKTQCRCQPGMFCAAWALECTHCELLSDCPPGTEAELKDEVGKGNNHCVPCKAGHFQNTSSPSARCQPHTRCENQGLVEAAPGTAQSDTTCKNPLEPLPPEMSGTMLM

B1: anti-LTBR clone 1E01 (Fab clone "1E01") (Fab, V domains shown)
VH: QVQLVQSGAEVKKPGSSVKVSCKASGGTFSSYFWSWVRQAPGQGLEWMGRFYSGGSANYNPSLKERVTITADESTSTAYMELSSLRSEDTAVYYCARERRGYSGGFEIWGQGTLVTVSS
VL: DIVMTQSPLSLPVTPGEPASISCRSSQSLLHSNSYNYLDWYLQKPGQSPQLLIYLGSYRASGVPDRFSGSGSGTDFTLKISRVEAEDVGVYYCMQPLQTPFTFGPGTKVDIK
notes: Only VH and VL are tied to the clone; also called 1E01 antibody
One may read the Kd as the equilibrium constant for the complex coming apart. Turning to B1, binding in assay [1] was put at a Kd of 115 nM.

B2: 1E01 tetravalent antibody (antibody, human IgG1, kappa)
heavy: QVQLVQSGAEVKKPGSSVKVSCKASGGTFSSYFWSWVRQAPGQGLEWMGRFYSGGSANYNPSLKERVTITADESTSTAYMELSSLRSEDTAVYYCARERRGYSGGFEIWGQGTLVTVSSASTKGPSVFPLAPSSKSTSGGTAALGCLVKDYFPEPVTVSWNSGALTSGVHTFPAVLQSSGLYSLSSVVTVPSSSLGTQTYICNVNHKPSNTKVDKKVEPKSCGGGGSQVQLVQSGAEVKKPGSSVKVSCKASGGTFSSYFWSWVRQAPGQGLEWMGRFYSGGSANYNPSLKERVTITADESTSTAYMELSSLRSEDTAVYYCARERRGYSGGFEIWGQGTLVTVSSASTKGPSVFPLAPSSKSTSGGTAALGCLVKDYFPEPVTVSWNSGALTSGVHTFPAVLQSSGLYSLSSVVTVPSSSLGTQTYICNVNHKPSNTKVDKKVEPKSCDKTHTCPPCPAPEAAGAPSVFLFPPKPKDTLMISRTPEVTCVVVDVSHEDPEVKFNWYVDGVEVHNAKTKPREEQYNSTYRVVSVLTVLHQDWLNGKEYKCKVSNKALPAPIEKTISKAKGQPREPQVYTLPPSREEMTKNQVSLTCLVKGFYPSDIAVEWESNGQPENNYKTTPPVLDSDGSFFLYSKLTVDKSRWQQGNVFSCSVMHEALHNHYTQKSLSLSPGK
light: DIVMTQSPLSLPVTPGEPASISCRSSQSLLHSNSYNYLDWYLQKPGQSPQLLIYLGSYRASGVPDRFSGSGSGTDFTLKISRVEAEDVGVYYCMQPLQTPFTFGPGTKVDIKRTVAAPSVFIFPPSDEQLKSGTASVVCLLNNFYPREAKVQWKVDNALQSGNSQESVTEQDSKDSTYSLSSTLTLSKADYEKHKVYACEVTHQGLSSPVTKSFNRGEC
notes: Extended heavy chain VH-CH1-linker-VH-CH1-hinge-CH2-CH3; AF647-labeled in the flow cytometry assay; also called tetravalent 1E01
The term EC50 denotes the concentration at which the effect is half-maximal. On to B2, for which the EC50 in assay [2] amounted to 73 ng/mL; in assay [6], 76 ng/mL. In addition, the “CXCL10 Release, EC50 (ug/mL), primary human dermal fibroblasts” value in assay [3] is 0.00231 µg/mL. The “NFkB Activation, EC50 (ug/mL), CT26 hEC-mTM-mIC NFkB luciferase reporter cells” value in assay [4] came out at 0.00173 µg/mL. Further, the “CXCL10 Release, EC50 (ug/mL), primary cyno fibroblasts” value in assay [5] is 0.00902 µg/mL.

Values taken from patent US20230365701A1 (Pfizer, published 2023).
